Source: US20230416709

Legend:
Experiment in all cases: cell_activity
[1] = tested on: B2M_PPR(L)-FokI M50 (Flavobacterium okeanokoites (FokI domain)); details: Fn reporter HEK293T, paired with B2M_PPR(R)
[2] = tested on: GFP_PPR(L)-FokI M50 (Flavobacterium okeanokoites (FokI domain)); details: Fn reporter HEK293T, paired with GFP_PPR(R)
[3] = tested on: B2M_PPR(R)-FokI M50 (Flavobacterium okeanokoites (FokI domain)); details: Fn reporter HEK293T, paired with B2M_PPR(L)
[4] = tested on: TALEN-A-FokI M47 (MBP fusion) (Flavobacterium okeanokoites (FokI domain)); details: E. coli B2P, 0.1 mM IPTG 15 min 37 C
[5] = tested on: TALEN-A-FokI M50(G473) (MBP fusion) R473G (Flavobacterium okeanokoites (FokI domain)); details: E. coli B2P; M50 24% in same experiment
[6] = tested on: TALEN-A-FokI wild-type (MBP fusion) (Flavobacterium okeanokoites (FokI domain)); details: E. coli B2P, 0.1 mM IPTG 15 min 37 C
[7] = tested on: TALEN-A-FokI M49 (MBP fusion) (Flavobacterium okeanokoites (FokI domain)); details: E. coli B2P, 0.1 mM IPTG 15 min 37 C
[8] = tested on: TALEN-A-FokI M50 (MBP fusion) (Flavobacterium okeanokoites (FokI domain)); details: E. coli B2P, 0.1 mM IPTG 15 min 37 C; 24% in second experiment (p75)
[9] = tested on: TALEN-A-FokI M48 (MBP fusion) (Flavobacterium okeanokoites (FokI domain)); details: E. coli B2P, 0.1 mM IPTG 15 min 37 C
[10] = tested on: GFP_TALEN(L)-FokI M47 (Flavobacterium okeanokoites (FokI domain)); details: SSA reporter HEK293T, pair; value in figure only
[11] = tested on: GFP_TALEN(L)-FokI M48 (Flavobacterium okeanokoites (FokI domain)); details: SSA reporter HEK293T, pair; value in figure only
[12] = tested on: GFP_TALEN(L)-FokI M49 (Flavobacterium okeanokoites (FokI domain)); details: SSA reporter HEK293T, pair; value in figure only
[13] = tested on: GFP_TALEN(L)-FokI M50 (Flavobacterium okeanokoites (FokI domain)); details: SSA reporter HEK293T, pair; value in figure only
[14] = tested on: B2M_TALEN(L)-FokI M47 (Flavobacterium okeanokoites (FokI domain)); details: SSA reporter HEK293T, pair; value in figure only
[15] = tested on: B2M_TALEN(L)-FokI M50 (Flavobacterium okeanokoites (FokI domain)); details: SSA reporter HEK293T, pair; value in figure only
[16] = tested on: B2M_TALEN(L)-FokI M48 (Flavobacterium okeanokoites (FokI domain)); details: SSA reporter HEK293T, pair; value in figure only
[17] = tested on: B2M_TALEN(L)-FokI M49 (Flavobacterium okeanokoites (FokI domain)); details: SSA reporter HEK293T, pair; value in figure only
[18] = tested on: GFP_PPR(R)-FokI M50 (Flavobacterium okeanokoites (FokI domain)); details: Fn reporter HEK293T, paired with GFP_PPR(L)
[19] = tested on: B2M_TALEN(R)-FokI M50 (Flavobacterium okeanokoites (FokI domain)); details: SSA reporter HEK293T, pair; value in figure only
[20] = tested on: B2M_TALEN(R)-FokI M48 (Flavobacterium okeanokoites (FokI domain)); details: SSA reporter HEK293T, pair; value in figure only
[21] = tested on: B2M_TALEN(R)-FokI M47 (Flavobacterium okeanokoites (FokI domain)); details: SSA reporter HEK293T, pair; value in figure only
[22] = tested on: B2M_TALEN(R)-FokI M49 (Flavobacterium okeanokoites (FokI domain)); details: SSA reporter HEK293T, pair; value in figure only
[23] = tested on: GFP_TALEN(R)-FokI M48 (Flavobacterium okeanokoites (FokI domain)); details: SSA reporter HEK293T, pair; value in figure only
[24] = tested on: GFP_TALEN(R)-FokI M49 (Flavobacterium okeanokoites (FokI domain)); details: SSA reporter HEK293T, pair; value in figure only
[25] = tested on: GFP_TALEN(R)-FokI M47 (Flavobacterium okeanokoites (FokI domain)); details: SSA reporter HEK293T, pair; value in figure only
[26] = tested on: GFP_TALEN(R)-FokI M50 (Flavobacterium okeanokoites (FokI domain)); details: SSA reporter HEK293T, pair; value in figure only

With “AATGGAAAGTCAAA (double strand) [B2M_PPR(L) half-site]” the activity (fold vs WT FokI) [1] was 2.2.
“ACGACTTCTTCAAGT (double strand) [GFP_PPR(L) half-site]” showed an activity (fold vs WT FokI) [2] of 1.5.
“AGCAATTCAGGAAA (double strand) [B2M_PPR(R) half-site]” gave an activity (fold vs WT FokI) [3] of 2.2.
With “AGCCGAAATCATCGCAGCCGCTGCCGCGAGCTCCTGCGATGATTTCGGCT (double strand) [TALEN-A target site (inverted repeat)]” the activity [4] was 29 % survival, the activity [5] was under 0.05 % survival and the activity [6] was 0.0001 % survival. For the same sequence, the activity [7] was 45 % survival, the activity [8] was 28 % survival and the activity [9] was 37 % survival.
For “CAGCGTGTCCGGCGA (double strand) [GFP_TALEN(L) half-site]”, the activity (fold vs WT FokI) [10] was over 1, the activity (fold vs WT FokI) [11] was over 1 and the activity (fold vs WT FokI) [12] was over 1. For the same sequence, the activity (fold vs WT FokI) [13] was over 1.
Sequence “CCAAAGATTCAGGT (double strand) [B2M_TALEN(L) half-site]” has an activity (fold vs WT FokI) [14] of over 1, an activity (fold vs WT FokI) [15] of over 1 and an activity (fold vs WT FokI) [16] of over 1. It also gave an activity (fold vs WT FokI) [17] of over 1.
“CCTGGACGTAGCCTT (double strand) [GFP_PPR(R) half-site]” showed an activity (fold vs WT FokI) [18] of 1.5.
With “GACTTTCCATTCTC (double strand) [B2M_TALEN(R) half-site]” the activity (fold vs WT FokI) [19] was over 1, the activity (fold vs WT FokI) [20] was over 1 and the activity (fold vs WT FokI) [21] was over 1. For the same sequence, the activity (fold vs WT FokI) [22] was over 1.
With “TTGCCGTAGGTGGCA (double strand) [GFP_TALEN(R) half-site]” the activity (fold vs WT FokI) [23] was over 1, the activity (fold vs WT FokI) [24] was over 1 and the activity (fold vs WT FokI) [25] was over 1. The activity (fold vs WT FokI) [26] was over 1.
